Measured values published in publication PMC5766154.
Where a chain is given by its changes, count along the chain named.

Assays:
[1] = molecular target: AdeR receiver domain with linker sequence (AdeR_RD, 1-137) (Acinetobacter baumannii ATCC19606); assay: SEC
[2] = molecular target: full-length AdeR (AdeR_FL), response regulator of Acinetobacter baumannii (Acinetobacter baumannii ATCC19606); assay: SEC
AdeR_FL R205A/R215A = molecular target: T1, AdeR_FL R205A/R215A (Acinetobacter baumannii ATCC19606, UniProt E1A0Z5 1-247, R205A;R215A); assay: ITC
T1 sequence: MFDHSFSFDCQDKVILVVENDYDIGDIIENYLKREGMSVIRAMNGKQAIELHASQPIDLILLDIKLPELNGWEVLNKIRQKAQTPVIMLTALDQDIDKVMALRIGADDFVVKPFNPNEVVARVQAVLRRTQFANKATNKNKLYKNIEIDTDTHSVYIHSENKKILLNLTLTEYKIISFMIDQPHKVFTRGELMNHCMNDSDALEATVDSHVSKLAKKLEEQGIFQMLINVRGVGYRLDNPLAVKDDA

AdeR_DBD = molecular target: T2, AdeR_DBD (Acinetobacter baumannii ATCC19606, UniProt E1A0Z5 138-247); assay: ITC
T2 sequence: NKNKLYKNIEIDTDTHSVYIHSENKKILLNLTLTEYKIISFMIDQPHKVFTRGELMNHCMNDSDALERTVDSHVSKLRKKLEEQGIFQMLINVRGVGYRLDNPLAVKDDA

AdeR_FL R231A [3] = molecular target: T3, AdeR_FL R231A (Acinetobacter baumannii ATCC19606, UniProt E1A0Z5 1-247, R231A); assay: ITC
T3 sequence: T1 sequence with A205R, A215R, R231A

AdeR_FL = molecular target: T4, AdeR_FL (Acinetobacter baumannii ATCC19606, UniProt E1A0Z5 1-247); assay: ITC
T4 sequence: T1 sequence with A205R, A215R

AdeR_FL D63E = molecular target: T5, AdeR_FL D63E (Acinetobacter baumannii ATCC19606, UniProt E1A0Z5 1-247, D63E); assay: ITC
T5 sequence: T1 sequence with D63E, A205R, A215R

AdeR_FL R122A = molecular target: T6, AdeR_FL R122A (Acinetobacter baumannii ATCC19606, UniProt E1A0Z5 1-247, R122A); assay: ITC
T6 sequence: T1 sequence with R122A, A205R, A215R

AdeR_FL R231A [4] = molecular target: T3, AdeR_FL R231A; assay: EMSA

“AdeR receiver domain with linker sequence (AdeR_RD, 1-137) (domain or fragment)” showed a stoichiometry N [1] of 2.

“full-length AdeR (AdeR_FL), response regulator of Acinetobacter baumannii (natural protein)” showed a stoichiometry N [2] of 2.

B1: 25 bp intercistronic DNA (dsDNA)
DNA 1: TAAAGTGTGGAGTAAGTGTGGAGAA
DNA 2: TTCTCCACACTTACTCCACACTTTA
For B1, the binding result (AdeR_FL R205A/R215A) was “no binding”, the Kd (AdeR_DBD) was 2200 nM and the binding result (AdeR_FL R231A [3]) was “no binding”. The Kd (AdeR_FL) was 20 nM, the binding result (AdeR_FL D63E) was “binds” and the Kd (AdeR_FL R122A) was 1000 nM.

B2: biotin 25 bp intercistronic DNA (dsDNA)
DNA 1: TAAAGTGTGGAGTAAGTGTGGAGAA
DNA 2: TTCTCCACACTTACTCCACACTTTA
B2: no binding (AdeR_FL R231A [4]).
